Patent US9340579B2, “DPP-4 inhibitor” (NIPPI, INCORPORATED, priority 2011, dated 2016)
Values belong to the binder of their own block, whether it stands above or below them. Square brackets hold non-standard residues; d marks the D form. Ends that are not written are not given here. Hyp = O=C(O)[C@@H]1C[C@@H](O)CN1

Biological target: DPP-4 (manufactured by Sigma, derived from porcine kidney) (porcine, UniProt P22411 38-766, limits assumed)
Assay: cell-based or functional assay

Chain of DPP-4 (manufactured by Sigma, derived from porcine kidney) (P22411 38-766 limits assumed): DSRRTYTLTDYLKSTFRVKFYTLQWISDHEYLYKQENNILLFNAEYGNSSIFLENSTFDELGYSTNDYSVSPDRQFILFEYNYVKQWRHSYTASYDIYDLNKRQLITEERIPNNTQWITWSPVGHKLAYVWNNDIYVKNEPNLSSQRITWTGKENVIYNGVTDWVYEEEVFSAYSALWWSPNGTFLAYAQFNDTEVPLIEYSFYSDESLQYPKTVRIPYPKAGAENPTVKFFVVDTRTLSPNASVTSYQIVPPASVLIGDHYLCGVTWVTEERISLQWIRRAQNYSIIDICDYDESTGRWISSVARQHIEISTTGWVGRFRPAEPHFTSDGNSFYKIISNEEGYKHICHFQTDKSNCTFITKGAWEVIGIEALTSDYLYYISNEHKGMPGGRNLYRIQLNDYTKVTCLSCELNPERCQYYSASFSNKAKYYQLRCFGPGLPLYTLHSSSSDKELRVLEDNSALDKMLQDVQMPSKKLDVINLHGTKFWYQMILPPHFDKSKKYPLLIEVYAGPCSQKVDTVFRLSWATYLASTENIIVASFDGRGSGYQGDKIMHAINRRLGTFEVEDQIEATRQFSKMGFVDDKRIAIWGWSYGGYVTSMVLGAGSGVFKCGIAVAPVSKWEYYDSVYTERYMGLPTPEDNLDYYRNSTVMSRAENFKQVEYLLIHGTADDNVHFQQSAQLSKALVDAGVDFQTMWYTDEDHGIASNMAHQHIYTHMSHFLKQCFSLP

Inhibition rate (%) at 0.35 mg/ml time: 0%
B1: Hyp-Gly (peptide)
peptide: [Hyp]-Gly

Inhibition rate (%) at 0.35 mg/ml time: 0%
B2: Ala-Hyp (peptide)
peptide: Ala-[Hyp]

Inhibition rate (%) at 0.35 mg/ml time: 0%
B3: Pro-Hyp (peptide)
peptide: Pro-[Hyp]
